This note sets out measurements from US5308529A, “System for enhancing release of acids from anhydride precursors using esterase catalysts” (Lever Brothers Company, Division of Conopco, Inc., priority 1992, dated 1994).

Format in all cases: biochemical
Assay [1] in a line: Enzymatic hydrolysis of phthalic anhydride. The note with it: 5.0 mM phthalic anhydride; 60.77 EU/g enzyme; room temperature, 50% acetonitrile/water. As for the experimental part:
The reaction was carried out at room temperature in a mixed solvent system (50% acetonitrile/water). The buffer and water hardness concentration were identical to that used for the benzoic anhydride systems.

A short description of assay [2]: Enzymatic hydrolysis of benzoic anhydride at pH 5.00 and 10.0 (HPLC). The note with it: 0.5 mM benzoic anhydride, 50% acetonitrile/water, room temperature, background hydrolysis subtracted. As for the experimental part:
A 50% acetronitrile/water system was used in the presence of 120 ppm water hardness solution (2:1 calcium:magnesium), 0.5 mM benzoic anhydride, and 25 ppm acenaphthylene internal standard. The following buffer systems were utilized:
For pH 5.00: 10 mM sodium citrate, adjusted to pH 5.00 with 0.1 citric acid.
For pH 10.0: 10 mM triethanolamine, adjusted to pH 10.0 with 0.1M hydrochloric acid.
All reactions were run on a 10 mL scale at room temperature for a total of 5.00 min. The benzoic anhydride and internal standard were added from a stock solution which was 1.0M benzoic anhydride and […] acenaphthylene in 100% acetonitrile. A total of 5.0 μL of this stock was used (yielding a 1:2000 dilution) to make each reaction 0.5 mM benzoic anhydride and 25 ppm acenaphthylene. Benzoic acid produced was measured by HPLC (high pressure liquid chromatography) using the acenaphthylene internal standard as a reference.

The nature of assay [3]: Rate of benzoic acid formation from benzoic anhydride by enzymes with esterase activity (HPLC). The note with it: 50 μM benzoic anhydride, -10 deg. C., pH 7, 5 mins, 60% glycerol/water. As for the experimental part:
Standard reaction conditions for the rate determinations in Table 1 are as follows: 60% glycerol/water (w/w), 120 ppm hardness (2:1 Ca:Mg), 10 mM Triethanolamine adjusted to pH 7 with HCl, and […] benzoic anhydride. All incubations were at -10 deg. centigrade for 5 mins. Benzoic acid produced was measured by HPLC via an internal standard (acenaphthylene).
Various enzymes with esterase activity (lipases, esterases, proteases) were tested against benzoic anhydride to determine the rate of formation of acid. As a control, the effect on benzoic anhydride when no esterase was present (i.e., heat killed lipolase) was also measured.

B1: Genex 8397: protease; mutant of subtilisin BPN' with MET50→PHE, ASN76→ASP, GLY169→ALA, GLN206→CYS, ASN218→SER (protein, UniProt P00782 108-382, looked up, variant M50F N76D G169A Q206C N218S)
Subtilisin BPN': AQSVPYGVSQIKAPALHSQGYTGSNVKVAVIDSGIDSSHPDLKVAGGASFVPSETNPFQDNNSHGTHVAGTVAALDNSIGVLGVAPSASLYAVKVLGADGSGQYSWIINGIEWAIANNMDVINMSLGGPSGSAALKAAVDKAVASGVVVVAAAGNEGTSGSSSTVGYPAKYPSVIAVGAVDSSNQRASFSSVGPELDVMAPGVSICSTLPGNKYGAYSGTSMASPHVAGAAALILSKHPNWTNTQVRSSLENTTTKLGDSFYYGKGLINVQAAAQ
Consider B1, for which, in assay [1], the “Rate (μmol BA/EU/min)” value is reported as 3.03 × 10^-3 μmol BA/EU/min. Further, the “Reaction over 5.00 min.” value was 22.34% in assay [2] (pH 5.00, 60.0 EU/g. enzyme) and 63.23% in assay [2] (pH 10.0, 3.04 EU/g. enzyme).

B2: Lipolase: lipase from Humicola lanuginosa gene expressed in Aspergillus oryzae, commercially available from NOVO Industri A/S (protein, UniProt O59952 23-291, looked up)
Lipase: EVSQDLFNQFNLFAQYSAAAYCGKNNDAPAGTNITCTGNACPEVEKADATFLYSFEDSGVGDVTGFLALDNTNKLIVLSFRGSRSIENWIGNLNFDLKEINDICSGCRGHDGFTSSWRSVADTLRQKVEDAVREHPDYRVVFTGHSLGGALATVAGADLRGNGYDIDVFSYGAPRVGNRAFAEFLTVQTGGTLYRITHTNDIVPRLPPREFGYSHSSPEYWIKSGTLVPVTRNDIVKIEGIDATGGNNQPNIPDIPAHLWYFGLIGTCL
Consider B2, for which the “Reaction over 5.00 min.” value is listed as 33.30% in assay [2] (pH 5.00, 50.0 EU/g. enzyme) and 86.06% in assay [2] (pH 10.0, 15.0 EU/g. enzyme).

B3: Heat Killed Lipolase: control: heat killed lipolase, i.e. no esterase present (protein, UniProt O59952 23-291, looked up)
Lipase: EVSQDLFNQFNLFAQYSAAAYCGKNNDAPAGTNITCTGNACPEVEKADATFLYSFEDSGVGDVTGFLALDNTNKLIVLSFRGSRSIENWIGNLNFDLKEINDICSGCRGHDGFTSSWRSVADTLRQKVEDAVREHPDYRVVFTGHSLGGALATVAGADLRGNGYDIDVFSYGAPRVGNRAFAEFLTVQTGGTLYRITHTNDIVPRLPPREFGYSHSSPEYWIKSGTLVPVTRNDIVKIEGIDATGGNNQPNIPDIPAHLWYFGLIGTCL
modifications: heat-inactivated
notes: control: heat killed lipolase, i.e. no esterase present
For B3, the “Rate (uMol Benzoic Acid prod./enzyme unit/min)” value in assay [3] (control, no unit assay printed) is recorded as 0 uMol Benzoic Acid prod./enzyme.

B4: Humicola languinosa: lipase ex Humicola lanuginosa (listed under Lipases) (protein, UniProt O59952 23-291, looked up)
Lipase: EVSQDLFNQFNLFAQYSAAAYCGKNNDAPAGTNITCTGNACPEVEKADATFLYSFEDSGVGDVTGFLALDNTNKLIVLSFRGSRSIENWIGNLNFDLKEINDICSGCRGHDGFTSSWRSVADTLRQKVEDAVREHPDYRVVFTGHSLGGALATVAGADLRGNGYDIDVFSYGAPRVGNRAFAEFLTVQTGGTLYRITHTNDIVPRLPPREFGYSHSSPEYWIKSGTLVPVTRNDIVKIEGIDATGGNNQPNIPDIPAHLWYFGLIGTCL
On to B4, for which the “Rate (uMol Benzoic Acid prod./enzyme unit/min)” value in assay [3] (enzyme unit = lipase unit) is 1.08 E-1 uMol Benzoic Acid prod./enzyme.

B5: Papain: enzyme listed under Proteases in Table 1 (protein, UniProt P00784 134-345, looked up)
Papain: IPEYVDWRQKGAVTPVKNQGSCGSCWAFSAVVTIEGIIKIRTGNLNEYSEQELLDCDRRSYGCNGGYPWSALQLVAQYGIHYRNTYPYEGVQRYCRSREKGPYAAKTDGVRQVQPYNEGALLYSIANQPVSVVLEAAGKDFQLYRGGIFVGPCGNKVDHAVAAVGYGPNYILIKNSWGTGWGENGYIRIKRGTGNSYGVCGLYTSSFYPVKN
As to B5, the “Rate (uMol Benzoic Acid prod./enzyme unit/min)” value in assay [3] (enzyme unit = esterase unit) is listed as 6.2 E-3 uMol Benzoic Acid prod./enzyme.
